System: Escherichia coli TOP10
Assay: shrunken log2 fold change of peptide-encoding DNA abundance (4.5 h post-induction vs induction); higher = less antimicrobial activity (less host growth inhibition)
Details: time post-induction: 4.5 h; library: site-saturation at positions 5, 18, 19, 20
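Further: peptides expressed intracellularly from a pBAD plasmid library in pooled LB shake-flask culture, induced with 0.3% L-arabinose, DNA abundance read by NGS, three biological replicates, DESeq2 with apeglm shrinkage.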

| Sequence | shrunken log2 fold change |
| --- | --- |
| RRIRARPPRLPRPRPRPFENPRP | 0.166 |
| RRIRERPPRLPRPRPRPHRQPRP | -0.0179 |
| RRIRHRPPRLPRPRPRPYMIPRP | -0.025 |
| RRIRCRPPRLPRPRPRPHMTPRP | -0.331 |
| RRIRRRPPRLPRPRPRPTDHPRP | -0.235 |
| RRIRLRPPRLPRPRPRPAKYPRP | -0.694 |
| RRIRFRPPRLPRPRPRPGPRPRP | 0.618 |
| RRIRSRPPRLPRPRPRPGYTPRP | -0.129 |
| RRIRERPPRLPRPRPRPYKAPRP | -0.123 |
| RRIRMRPPRLPRPRPRPSNGPRP | -0.0373 |
| RRIRMRPPRLPRPRPRPFESPRP | -0.00973 |
| RRIRIRPPRLPRPRPRPIHAPRP | -0.00674 |
| RRIRDRPPRLPRPRPRPMTCPRP | 0.0184 |
| RRIRQRPPRLPRPRPRPMQQPRP | -0.0642 |
| RRIRCRPPRLPRPRPRPRQHPRP | -0.0138 |
| RRIRGRPPRLPRPRPRPLQLPRP | 0.447 |
| RRIRFRPPRLPRPRPRPGQPPRP | 0.199 |
| RRIRNRPPRLPRPRPRPIGMPRP | -0.0748 |
| RRIRFRPPRLPRPRPRPVHVPRP | -0.191 |
| RRIRVRPPRLPRPRPRPMCAPRP | 0.137 |
| RRIRRRPPRLPRPRPRPFLCPRP | 0.219 |
| RRIRFRPPRLPRPRPRPIYGPRP | -0.289 |
| RRIRSRPPRLPRPRPRPKNLPRP | -0.599 |
| RRIRARPPRLPRPRPRPHPQPRP | 0.45 |
| RRIRHRPPRLPRPRPRPCVWPRP | 0.0245 |

| Sequence | shrunken log2 fold change |
| --- | --- |
| RRIRMRPPRLPRPRPRPFQFPRP | -0.0349 |
| RRIRFRPPRLPRPRPRPILWPRP | -0.0429 |
| RRIRDRPPRLPRPRPRPDYWPRP | -0.00116 |
| RRIRQRPPRLPRPRPRPWQVPRP | -0.154 |
| RRIRGRPPRLPRPRPRPDANPRP | 1.99 |
| RRIRKRPPRLPRPRPRPAQAPRP | 0.281 |
| RRIRCRPPRLPRPRPRPNTNPRP | -0.66 |
| RRIRLRPPRLPRPRPRPPAKPRP | 0.529 |
| RRIRERPPRLPRPRPRPRQRPRP | 0.32 |
| RRIRKRPPRLPRPRPRPLHKPRP | 0.342 |
| RRIRMRPPRLPRPRPRPHNNPRP | -0.153 |
| RRIRMRPPRLPRPRPRPPMCPRP | 0.293 |
| RRIRFRPPRLPRPRPRPTGQPRP | 0.0488 |
| RRIRLRPPRLPRPRPRPWSMPRP | 0.202 |
| RRIRVRPPRLPRPRPRPLYLPRP | -0.507 |
| RRIRYRPPRLPRPRPRPACVPRP | -0.351 |
| RRIRDRPPRLPRPRPRPRPRPRP | 0.983 |
| RRIRIRPPRLPRPRPRPQTGPRP | -0.139 |
| RRIRGRPPRLPRPRPRPYQVPRP | 0.174 |
| RRIRGRPPRLPRPRPRPFPKPRP | 0.0687 |
| RRIRYRPPRLPRPRPRPKCWPRP | 0.14 |
| RRIRERPPRLPRPRPRPYHIPRP | -0.212 |
| RRIRIRPPRLPRPRPRPAYDPRP | -0.325 |
| RRIRMRPPRLPRPRPRPAAKPRP | 1.26 |
| RRIRARPPRLPRPRPRPRLVPRP | 0.512 |

| Sequence | shrunken log2 fold change |
| --- | --- |
| RRIRTRPPRLPRPRPRPIIIPRP | -0.219 |
| RRIRARPPRLPRPRPRPQKTPRP | 0.0194 |
| RRIRGRPPRLPRPRPRPASNPRP | 0.375 |
| RRIRTRPPRLPRPRPRPGIVPRP | -0.184 |
| RRIRLRPPRLPRPRPRPRADPRP | 2.32 |
| RRIRVRPPRLPRPRPRPYDMPRP | -0.382 |
| RRIRDRPPRLPRPRPRPQSCPRP | -0.0045 |
| RRIRARPPRLPRPRPRPMIAPRP | 0.263 |
| RRIRCRPPRLPRPRPRPVTKPRP | 0.217 |
| RRIRVRPPRLPRPRPRPPNNPRP | -0.233 |
| RRIRHRPPRLPRPRPRPGGNPRP | 0.00148 |
| RRIRCRPPRLPRPRPRPRKRPRP | 0.456 |
| RRIRPRPPRLPRPRPRPTFWPRP | 0.333 |
| RRIRMRPPRLPRPRPRPDQQPRP | -0.0225 |
| RRIRARPPRLPRPRPRPHLFPRP | 0.117 |
| RRIRYRPPRLPRPRPRPLPCPRP | -0.413 |
| RRIRKRPPRLPRPRPRPAQCPRP | -0.0613 |
| RRIRKRPPRLPRPRPRPPIPPRP | 0.987 |
| RRIRSRPPRLPRPRPRPHSKPRP | -0.486 |
| RRIRLRPPRLPRPRPRPFHQPRP | -1 |
| RRIRVRPPRLPRPRPRPTGQPRP | 0.526 |
| RRIRERPPRLPRPRPRPCCAPRP | 0.112 |
| RRIRDRPPRLPRPRPRPQKFPRP | -0.0467 |
| RRIRHRPPRLPRPRPRPTFQPRP | -0.067 |
| RRIRIRPPRLPRPRPRPDFHPRP | -0.649 |

| Sequence | shrunken log2 fold change |
| --- | --- |
| RRIRERPPRLPRPRPRPKSDPRP | -0.0784 |
| RRIRDRPPRLPRPRPRPACRPRP | 0.219 |
| RRIRNRPPRLPRPRPRPPMFPRP | -0.0155 |
| RRIRYRPPRLPRPRPRPEQYPRP | -0.0207 |
| RRIRERPPRLPRPRPRPYYCPRP | -0.913 |
| RRIRDRPPRLPRPRPRPYFPPRP | -0.944 |
| RRIRHRPPRLPRPRPRPMGQPRP | -0.239 |
| RRIRWRPPRLPRPRPRPMCNPRP | -0.181 |
| RRIRNRPPRLPRPRPRPHLGPRP | -0.317 |
| RRIRPRPPRLPRPRPRPRRAPRP | 0.525 |
| RRIRDRPPRLPRPRPRPGQNPRP | -0.0354 |
| RRIRKRPPRLPRPRPRPQTKPRP | 0.069 |
| RRIRDRPPRLPRPRPRPLPMPRP | 0.0543 |
| RRIRARPPRLPRPRPRPVHGPRP | 0.785 |
| RRIRVRPPRLPRPRPRPETWPRP | 0.0351 |
| RRIRKRPPRLPRPRPRPQGMPRP | -0.027 |
| RRIRMRPPRLPRPRPRPPFVPRP | 0.267 |
| RRIRTRPPRLPRPRPRPDMAPRP | -0.0628 |
| RRIRPRPPRLPRPRPRPLYNPRP | -0.623 |
| RRIRARPPRLPRPRPRPRHFPRP | 0.157 |
| RRIRDRPPRLPRPRPRPIAHPRP | 0.41 |
| RRIRTRPPRLPRPRPRPTVTPRP | 0.0797 |
| RRIRERPPRLPRPRPRPREWPRP | 0.325 |
| RRIRPRPPRLPRPRPRPNPLPRP | 0.149 |
| RRIRQRPPRLPRPRPRPPSKPRP | 0.353 |

| Sequence | shrunken log2 fold change |
| --- | --- |
| RRIRKRPPRLPRPRPRPMNDPRP | 0.188 |
| RRIRNRPPRLPRPRPRPQTWPRP | -0.183 |
| RRIRWRPPRLPRPRPRPHSKPRP | 1.84 |
| RRIRFRPPRLPRPRPRPRWPPRP | 0.327 |
| RRIRCRPPRLPRPRPRPRYMPRP | -0.402 |
| RRIRKRPPRLPRPRPRPMMAPRP | 0.255 |
| RRIRQRPPRLPRPRPRPHPGPRP | 0.125 |
| RRIRCRPPRLPRPRPRPQDMPRP | 0.0633 |
| RRIRMRPPRLPRPRPRPKLVPRP | 0.115 |
| RRIRNRPPRLPRPRPRPDLMPRP | 3.21 |
| RRIRDRPPRLPRPRPRPYSQPRP | -0.0305 |
| RRIRHRPPRLPRPRPRPRANPRP | 0.177 |
| RRIRKRPPRLPRPRPRPLIRPRP | -0.0949 |
| RRIRDRPPRLPRPRPRPTTWPRP | 0.467 |
| RRIRRRPPRLPRPRPRPPQPPRP | 1.26 |
| RRIRQRPPRLPRPRPRPCCMPRP | -0.42 |
| RRIRTRPPRLPRPRPRPMLKPRP | -0.106 |
| RRIRQRPPRLPRPRPRPQQKPRP | -0.023 |
| RRIRKRPPRLPRPRPRPCWCPRP | -0.0214 |
| RRIRARPPRLPRPRPRPAKYPRP | -0.156 |
| RRIRQRPPRLPRPRPRPMFQPRP | -0.467 |
| RRIRVRPPRLPRPRPRPDIMPRP | -0.18 |
| RRIRGRPPRLPRPRPRPLNRPRP | 0.33 |
| RRIRNRPPRLPRPRPRPHMYPRP | 0.0526 |
| RRIRCRPPRLPRPRPRPETFPRP | 0.07 |

Source: the supplement of paper PMC9112550, “Optimization of the antimicrobial peptide Bac7 by deep mutational scanning” (BMC Biology, 2022)
